Legend:
[1] = tested on: mouse primary hepatocytes; test: In vitro glucose production assay (media glucose accumulation); details: 2 hours, 0-1100 nM recombinant asprosin
Method: Cell Culture. Primary mouse hepatocytes were isolated from 8- to 12-week-old WT mice using standard methodology. […] The cells were treated with 50 nM recombinant asprosin or GFP for 10 minutes for cAMP and PKA assays and for 2 hours for the in vitro glucose production assay. Cells were pretreated with various inhibitors for 1 hour prior to treatment with asprosin, GFP, Glucagon or Epinephrine. cAMP was measured from cell lysates using the cAMP direct immunoassay kit from Cell Biolabs. PKA activity was measured from cell lysates using the PKA kinase activity kit from Enzo Lifesciences, Inc. Media glucose content was measured using the Glucose Colorimetric Assay Kit from Biovision. Results were normalized to protein content.

[2] = rat, in vivo, iv
AgRP neurons = test: Whole-cell patch clamp recordings on AgRP neurons; assay type: cell-based, mice
Method: Electrophysiology—Whole-cell patch clamp recordings were performed on identified AgRP neurons or POMC neurons in the brain slices containing the arcuate nucleus of the hypothalamus (ARH). In particular, to identify AgRP neurons, the inventors crossed Rosa26-tdTOMATO allele onto the regular AgRP-Cre mice (Tong et al., 2008) to generate AgRP-Cre/Rosa26-tdTOMATO mice, which express TOMATO selectively in AgRP/NPY neurons. In some studies, the inventors crossed NPY-GFP mice (Pinto et al., 2004) with NPS mice to generate NPY-GFP mice with or without the NPS mutation, and GFP-labelled neurons in the arcuate nucleus were recorded. In order to record POMC neurons, the inventors crossed Rosa26-tdTOMATO allele onto the POMC-CreERT2 mice (Berglund et al., 2013) to generate POMC-CreERT2/Rosa26-tdTOMATO mice, which express TOMATO selectively in mature POMC neurons upon tamoxifen induction (0.2 mg/g, i.p. 6 weeks of age). In some studies, the inventors also crossed the AgRP-DTR allele onto POMC-GFP mice, and these mice received DT or saline injections (described above) to generate mice with or without AgRP neurons ablated.
Six to twelve-week old mice were deeply anesthetized with isoflurane and transcardially perfused with a modified ice-cold sucrose-based cutting solution (pH 7.3) containing 10 mM NaCl, 25 mM NaHCO3, 195 mM Sucrose, 5 mM Glucose, 2.5 mM KCl, 1.25 mM NaH2PO4, 2 mM Na-Pyruvate, 0.5 mM CaCl2, and 7 mM MgCl2, bubbled continuously with 95% O2 and 5% CO2 (Ren et al., 2012). The mice were then decapitated, and the entire brain was removed and immediately submerged in the cutting solution. Slices (250 μm) were cut with a Microm HM 650V vibratome (Thermo Scientific). Three brain slices containing the arcuate nucleus were obtained for each animal (Bregma −2.06 mm to −1.46 mm; Interaural 1.74 mm to 2.34 mm), and recordings were made at levels throughout this brain region. The slices were recovered for 1 h at 34° C. and then maintained at room temperature in artificial cerebrospinal fluid (aCSF, pH 7.3) containing 126 mM NaCl, 2.5 mM KCl, 2.4 mM CaCl2, 1.2 mM NaH2PO4, 1.2 mM MgCl2, 11.1 mM glucose, and 21.4 mM NaHCO3) saturated with 95% O2 and 5% CO2 before recording.
Slices were transferred to a recording chamber and allowed to equilibrate for at least 10 min before recording. The slices were superfused at 34° C. in oxygenated aCSF at a flow rate of 1.8-2 ml/min. GFP or TOMATO-labeled neurons in the ARH were visualized using epifluorescence and IR-DIC imaging on an upright microscope (Eclipse FN-1, Nikon) equipped with a moveable stage (MP-285, Sutter Instrument). Patch pipettes with resistances of 3-5 MΩ were filled with intracellular solution (pH 7.3) containing 128 mM K-Gluconate, 10 mM KCl, 10 mM HEPES, 0.1 mM EGTA, 2 mM MgCl2, 0.05 mM Na-GTP and 0.05 mM Mg-ATP. Recordings were made using a MultiClamp 700B amplifier (Axon Instrument), sampled using Digidata 1440A and analyzed offline with pClamp 10.3 software (Axon Instruments). Series resistance was monitored during the recording, and the values were generally <10 MΩ and were not compensated. The liquid junction potential was +12.5 mV, and was corrected after the experiment. Data were excluded if the series resistance increased dramatically during the experiment or without overshoot for action potential. Currents were amplified, filtered at 1 kHz, and digitized at 20 kHz. Current clamp was engaged to test neural firing frequency and resting membrane potential (RM) at the baseline and puff delivered recombinant Asprosin (500 ms at various concentrations indicated in the figures). For the asprosin antibody pre-incubation experiment, asprosin and anti-asprosin mAB or IgG were gently mixed at a 1:100 ratio, and then kept on ice for one hour before recording. After AgRP or POMC neuron response to asprosin alone was confirmed, the mixture of recombinant asprosin and anti-asprosin mAB or IgG was perfused to treat the AgRP or POMC neurons for 4 minutes. […]

[3] = Plasma His-tag sandwich ELISA after subcutaneous injection; assay type: in vivo, mice; details: 30 μg subcutaneous injection
Method: FIGS. 22A-22E: Asprosin traffics to the liver in vivo and binds the hepatocyte surface with high affinity in a saturable and competitive manner. (FIG. 22A) SPECT scans were performed 15 minutes after intravenous injection with 150 μCi I125-asprosin, boiled I125-asprosin, or free I125 in live, anesthetized mice previously injected with bismuth as a hepatic contrast agent. 3 representative images are shown in axial and coronal planes. (FIG. 22B) Liver asprosin accumulation was measured as liver photon intensity from mice in (FIG. 22A). (FIG. 22C) Tissue radioactivity (normalized to tissue weight) was measured using a γ-counter after sacrificing mice from (FIG. 22A), 45 minutes following injection (n=4 mice). (FIG. 22D) Sandwich ELISA was used to measure plasma His tag (recombinant asprosin contains an N-terminal His tag) in WT mice before injection and 15, 30, 60 and 120 minutes after injection with 30 μg recombinant asprosin. The time taken for peak signal to fall to half-maximal level is indicated by the arrow. […] Specific binding (shown in red) was calculated as the difference between the two curves. Data are represented as the mean±SEM.
Sandwich ELISA and Western Blot. […] Increasing amounts of recombinant asprosin (which contains an N-terminal His tag) were used to generate a standard curve for both assays. EDTA-plasma was used for plasma sandwich ELISAs and serum-free DMEM concentrated using Vivaspin protein concentrator spin columns by GE Life Sciences Inc. was used for media sandwich ELISAs.

B1: recombinant asprosin: 146 amino acid E. coli expressed fusion protein: 6 amino acid N-terminal His tag and 140 amino acid wild type asprosin (FBN1 2732-2871) (protein)
chain: HHHHHHSTNETDASNIEDQSETEANVSLASWDVEKTAIFAFNISHVSNKVRILELLPALTTLTNHNRYLIESGNEDGFFKINQKEGISYLHFTKKKPVAGTYSLQISSTPLYKKKELNQLEDKYDKDYLSGELGDNLKMKIQVLLH
- media glucose concentration [1]: increase in glucose concentration in a dose-dependent manner
- elevation in CSF asprosin [2]: 6 fold
- his-tag signal in the CSF [2]: strong his-tag signal
- miniature excitatory post-synaptic current (mEPSC) of AgRP neurons (AgRP neurons): increased the amplitude but not frequency
- proportion of AgRP neurons asprosin-responsive (AgRP neurons): about 50%
- dose-dependency of AgRP neuron activation (firing frequency, membrane potential) (AgRP neurons; 0.01-100 nM, intact slices): dose-dependent activation
- asprosin-mediated activation with synaptic inputs pharmacologically inhibited (AgRP neurons; TTX or TTX + AP-5 + CNQX + bicuculline): no decrease in asprosin-mediated activation
- EC50 for AgRP neuron activation (AgRP neurons; firing frequency and membrane potential): nanomolar to subnanomolar range
- AgRP neuron firing frequency and membrane potential (AgRP neurons; recombinant asprosin puff): acutely induced their activation
- plasma half-life ([3]; His-tag ELISA): approximately 20 minutes
- peak level in plasma ([3]; mice): 50 nM
- time of peak level after injection ([3]; mice): 20 min

From patent publication US20210047398A1, “ASPROSIN, A FAST-INDUCED GLUCOGENIC PROTEIN HORMONE” (Baylor College of Medicine, priority 2016, published 2021)
